Laboratory results reported in the supplement of paper PMC5998384.

Legend:
HeLa Kyoto [1] = test: solubility change mitosis vs G1/S (difference of NP-40 vs SDS log2 ratios) (log2 ratio difference); higher = more soluble in mitosis
HeLa Kyoto [2] = test: melting temperature (median over replicates), in situ; higher = more thermally stable
HeLa Kyoto [3] = test: thermal stability score vs G1/S (z-score of summed log2 fold changes over temperatures); higher = more thermally stable than in G1/S
HeLa Kyoto [4] = test: solubility in G1/S (NP-40 vs SDS abundance) (log2 ratio); higher = more soluble; conditions: cell cycle stage: G1/S
[5] = cell cycle stage: early G1 (4.5 h after nocodazole release)
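For melting temperature (median over replicates), in situ in this document: HeLa Kyoto cells synchronized by double thymidine or nocodazole block, proteins quantified by TMT10plex mass spectrometry, three independent biological replicates.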
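For solubility change mitosis vs G1/S (difference of NP-40 vs SDS log2 ratios) in this document: synchronized HeLa Kyoto cells (double thymidine block for G1/S, nocodazole release for mitosis), protein amounts in NP-40 versus SDS lysates quantified by mass spectrometry, three biological replicates.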
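For solubility in G1/S (NP-40 vs SDS abundance) in this document: HeLa Kyoto cells arrested at G1/S by double thymidine block, proteins quantified by TMT10plex mass spectrometry in mild NP-40 versus SDS extracts, three biological replicates.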
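For thermal stability score vs G1/S (z-score of summed log2 fold changes over temperatures) in this document: synchronized HeLa Kyoto cells, proteins quantified by TMT10plex mass spectrometry, three biological replicates, mitosis taken 0.5 h after nocodazole release, G1/S directly after double thymidine block.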

Sequence | solubility change mitosis (log2) (HeLa Kyoto [1]) | melting temperature (HeLa Kyoto [2]; cell cycle stage: G1/S) [°C] | melting temperature (HeLa Kyoto [2]; cell cycle stage: mitosis) [°C] | thermal stability score (HeLa Kyoto [3]; [5]) | thermal stability score (HeLa Kyoto [3]; cell cycle stage: mitosis) | solubility in G1/S (log2) (HeLa Kyoto [4])
MGILSITDQPPLVQAIFSRDVEEVRSLLSQKENINVLDQERRTPLHAAAYVGDVPILQLLLMSGANVNAKDTLWLTPLHRAAASRNEKVLGLLLAHSADVNARDKLWQTPLHVAAANRATKCAEALAPLLSSLNVADRSGRSALHHAVHSGHLETVNLLLNKGASLNVCDKKERQPLHWAAFLGHLEVLKLLVARGADLGCKDRKGYGLLHTAAASGQIEVVKYLLRMGAEIDEPNAFGNTALHIACYLGQDAVAIELVNAGANVNQPNDKGFTPLHVAAVSTNGALCLELLVNNGADVNYQSKEGKSPLHMAAIHGRFTRSQILIQNGSEIDCADKFGNTPLHVAARYGHELLISTLMTNGADTARRGIHDMFPLHLAVLFGFSDCCRKLLSSGQLYSIVSSLSNEHVLSAGFDINTPDNLGRTCLHAAASGGNVECLNLLLSSGADLRRRDKFGRTPLHYAAANGSYQCAVTLVTAGAGVNEADCKGCSPLHYAAASDTYRRAEPHTPSSHDAEEDEPLKESRRKEAFFCLEFLLDNGADPSLRDRQGYTAVHYAAAYGNRQNLELLLEMSFNCLEDVESTIPVSPLHLAAYNGHCEALKTLAETLVNLDVRDHKGRTALFLATERGSTECVEVLTAHGASALIKERKRKWTPLHAAAASGHTDSLHLLIDSGERADITDVMDAYGQTPLMLAIMNGHVDCVHLLLEKGSTADAADLRGRTALHRGAVTGCEDCLAALLDHDAFVLCRDFKGRTPIHLASACGHTAVLRTLLQAALSTDPLDAGVDYSGYSPMHWASYTGHEDCLELLLEHSPFSYLEGNPFTPLHCAVINNQDSTTEMLLGALGAKIVNSRDAKGRTPLHAAAFADNVSGLRMLLQHQAEVNATDHTGRTALMTAAENGQTAAVEFLLYRGKADLTVLDENKNTALHLACSKGHEKCALMILAETQDLGLINATNSALQMPLHIAARNGLASVVQALLSHGATVLAVDEEGHTPALACAPNKDVADCLALILSTMKPFPPKDAVSPFSFSLLKNCSIAAAKTVGGCGALPHGASCPYSQERPGAIGLDGCYSE [ANKRD52] | -0.171 | 51.5 | 49.7 | -0.0695 | 0.105 | -0.0981
MGIQTSPVLLASLGVGLVTLLGLAVGSYLVRRSRRPQVTLLDPNEKYLLRLLDKTTVSHNTKRFRFALPTAHHTLGLPVGKHIYLSTRIDGSLVIRPYTPVTSDEDQGYVDLVIKVYLKGVHPKFPEGGKMSQYLDSLKVGDVVEFRGPSGLLTYTGKGHFNIQPNKKSPPEPRVAKKLGMIAGGTGITPMLQLIRAILKVPEDPTQCFLLFANQTEKDIILREDLEELQARYPNRFKLWFTLDHPPKDWAYSKGFVTADMIREHLPAPGDDVLVLLCGPPPMVQLACHPNLDKLGYSQKMRFTY [CYB5R1] | -0.041 | 54.1 | 55.3 | -0.825 | -0.661 | 0.339
MGKAAAPSRGGGCGGRSRGLSSLFTVVPCLSCHTAAPGMSASTSGSGPEPKPQPQPVPEPERGPLSEQVSEAVSEAVPRSEPVSETTSEPEPGAGQPSELLQGSRPGSESSSGVGAGPFTKAASEPLSRAVGSATFLRPESGSLPALKPLPLLRPGQAKTPLGVPMSGTGTTSSAPLALLPLDSFEGWLLKWTNYLKGYQRRWFVLGNGLLSYYRNQGEMAHTCRGTINLSTAHIDTEDSCGILLTSGARSYHLKASSEVDRQQWITALELAKAKAVRVMNTHSDDSGDDDEATTPADKSELHHTLKNLSLKLDDLSTCNDLIAKHGAALQRSLTELDGLKIPSESGEKLKVVNERATLFRITSNAMINACRDFLELAEIHSRKWQRALQYEQEQRVHLEETIEQLAKQHNSLERAFHSAPGRPANPSKSFIEGSLLTPKGEDSEEDEDTEYFDAMEDSTSFITVITEAKEDSRKAEGSTGTSSVDWSSADNVLDGASLVPKGSSKVKRRVRIPNKPNYSLNLWSIMKNCIGRELSRIPMPVNFNEPLSMLQRLTEDLEYHHLLDKAVHCTSSVEQMCLVAAFSVSSYSTTVHRIAKPFNPMLGETFELDRLDDMGLRSLCEQVSHHPPSAAHYVFSKHGWSLWQEITISSKFRGKYISIMPLGAIHLEFQASGNHYVWRKSTSTVHNIIVGKLWIDQSGDIEIVNHKTNDRCQLKFLPYSYFSKEAARKVTGVVSDSQGKAHYVLSGSWDEQMECSKVMHSSPSSPSSDGKQKTVYQTLSAKLLWKKYPLPENAENMYYFSELALTLNEHEEGVAPTDSRLRPDQRLMEKGRWDEANTEKQRLEEKQRLSRRRRLEACGPGSSCSSEEEKEADAYTPLWFEKRLDPLTGEMACVYKGGYWEAKEKQDWHMCPNIF [OSBP2] | -0.137 | 50.7 | 51 | -0.699 | -0.707 | 0.0107
MGKEQELLEAARTGHLPAVEKLLSGKRLSSGFGGGGGGGSGGGGGGSGGGGGGLGSSSHPLSSLLSMWRGPNVNCVDSTGYTPLHHAALNGHKDVVEVLLRNDALTNVADSKGCYPLHLAAWKGDAQIVRLLIHQGPSHTRVNEQNNDNETALHCAAQYGHTEVVKVLLEELTDPTMRNNKFETPLDLAALYGRLEVVKMLLNAHPNLLSCNTKKHTPLHLAARNGHKAVVQVLLDAGMDSNYQTEMGSALHEAALFGKTDVVQILLAAGTDVNIKDNHGLTALDTVRELPSQKSQQIAALIEDHMTGKRSTKEVDKTPPPQPPLISSMDSISQKSQGDVEKAVTELIIDFDANAEEEGPYEALYNAISCHSLDSMASGRSSDQDSTNKEAEAAGVKPAGVRPRERPPPPAKPPPDEEEEDHIDKKYFPLTASEVLSMRPRIHGSAAREEDEHPYELLLTAETKKVVLVDGKTKDHRRSSSSRSQDSAEGQDGQVPEQFSGLLHGSSPVCEVGQDPFQLLCTAGQSHPDGSPQQGACHKASMQLEETGVHAPGASQPSALDQSKRVGYLTGLPTTNSRSHPETLTHTASPHPGGAEEGDRSGARSRAPPTSKPKAELKLSRSLSKSDSDLLTCSPTEDATMGSRSESLSNCSIGKKRLEKSPSFASEWDEIEKIMSSIGEGIDFSQERQKISGLRTLEQSVGEWLESIGLQQYESKLLLNGFDDVHFLGSNVMEEQDLRDIGISDPQHRRKLLQAARSLPKVKALGYDGNSPPSVPSWLDSLGLQDYVHSFLSSGYSSIDTVKNLWELELVNVLKVQLLGHRKRIIASLADRPYEEPPQKPPRFSQLRCQDLLSQTSSPLSQNDSCTGRSADLLLPPGDTGRRRHDSLHDPAAPSRAERFRIQEEHREAKLTLRPPSLAAPYAPVQSWQHQPEKLIFESCGYEANYLGSMLIKDLRGTESTQDACAKMRKSTEHMKKIPTIILSITYKGVKFIDASNKNVIAEHEIRNISCAAQDPEDLCTFAYITKDLQTSHHYCHVFSTVDVNLTYEIILTLGQAFEVAYQLALQAQKSRATGASAAEMIETKSSKPVPKPRVGVRKSALEPPDMDQDAQSHASVSWVVDPKPDSKRSLSTN [ANKS1A] | -0.0097 | 49.9 | 50.1 | 0.94 | 1.51 | 0.191
MGKKGKKEKKGRGAEKTAAKMEKKVSKRSRKEEEDLEALIAHFQTLDAKRTQTVELPCPPPSPRLNASLSVHPEKDELILFGGEYFNGQKTFLYNELYVYNTRKDTWTKVDIPSPPPRRCAHQAVVVPQGGGQLWVFGGEFASPNGEQFYHYKDLWVLHLATKTWEQVKSTGGPSGRSGHRMVAWKRQLILFGGFHESTRDYIYYNDVYAFNLDTFTWSKLSPSGTGPTPRSGCQMSVTPQGGIVVYGGYSKQRVKKDVDKGTRHSDMFLLKPEDGREDKWVWTRMNPSGVKPTPRSGFSVAMAPNHQTLFFGGVCDEEEEESLSGEFFNDLYFYDATRNRWFEGQLKGPKSEKKKRRRGRKEEPEGGSRPACGGAGTQGPVQLVKEVVAEDGTVVTIKQVLTAPGSAGQPRSEDEDSLEEAGSPAPGPCPRSNAMLAVKHGVLYVYGGMFEAGDRQVTLSDLHCLDLHRMEAWKALVEMDPETQEWLEETDSEEDSEEVEGAEGGVDDEDSGEESGAED [KLHDC4] | -0.00461 | 49.7 | 48.9 | -0.0688 | -0.148 | -0.239
MGKKYKNIVLLKGLEVINDYHFRMVKSLLSNDLKLNLKMREEYDKIQIADLMEEKFRGDAGLGKLIKIFEDIPTLEDLAETLKKEKLKVKGPALSRKRKKEVDATSPAPSTSSTVKTEGAEATPGAQKRKKSTKEKAGPKGSKVSEEQTQPPSPAGAGMSTAMGRSPSPKTSLSAPPNSSSTENPKTVAKCQVTPRRNVLQKRPVIVKVLSTTKPFEYETPEMEKKIMFHATVATQTQFFHVKVLNTSLKEKFNGKKIIIISDYLEYDSLLEVNEESTVSEAGPNQTFEVPNKIINRAKETLKIDILHKQASGNIVYGVFMLHKKTVNQKTTIYEIQDDRGKMDVVGTGQCHNIPCEEGDKLQLFCFRLRKKNQMSKLISEMHSFIQIKKKTNPRNNDPKSMKLPQEQRQLPYPSEASTTFPESHLRTPQMPPTTPSSSFFTKKSEDTISKMNDFMRMQILKEGSHFPGPFMTSIGPAESHPHTPQMPPSTPSSSFLTTKSEDTISKMNDFMRMQILKEGSHFPGPFMTSIGPAESHPHTPQMPPSTPSSSFLTTLKPRLKTEPEEVSIEDSAQSDLKEVMVLNATESFVYEPKEQKKMFHATVATENEVFRVKVFNIDLKEKFTPKKIIAIANYVCRNGFLEVYPFTLVADVNADRNMEIPKGLIRSASVTPKINQLCSQTKGSFVNGVFEVHKKNVRGEFTYYEIQDNTGKMEVVVHGRLTTINCEEGDKLKLTCFELAPKSGNTGELRSVIHSHIKVIKTRKNKKDILNPDSSMETSPDFFF [IFI16] | 0.318 | 46.8 | 49.1 | 3.09 | 5.43 | -0.293
MGKLRRRYNIKGRQQAGPGPSKGPPEPPPVQLELEDKDTLKGVDASNALVLPGKKKKKTKAPPLSKKEKKPLTKKEKKVLQKILEQKEKKSQRAEMLQKLSEVQASEAEMRLFYTTSKLGTGNRMYHTKEKADEVVAPGQEKISSLSGAHRKRRRWPSAEEEEEEEEESESELEEESELDEDPAAEPAEAGVGTTVAPLPPAPAPSSQPVPAGMTVPPPPAAAPPLPRALAKPAVFIPVNRSPEMQEERLKLPILSEEQVIMEAVAEHPIVIVCGETGSGKTTQVPQFLYEAGFSSEDSIIGVTEPRRVAAVAMSQRVAKEMNLSQRVVSYQIRYEGNVTEETRIKFMTDGVLLKEIQKDFLLLRYKVVIIDEAHERSVYTDILIGLLSRIVTLRAKRNLPLKLLIMSATLRVEDFTQNPRLFAKPPPVIKVESRQFPVTVHFNKRTPLEDYSGECFRKVCKIHRMLPAGGILVFLTGQAEVHALCRRLRKAFPPSRARPQEKDDDQKDSVEEMRKFKKSRARAKKARAEVLPQINLDHYSVLPAGEGDEDREAEVDEEEGALDSDLDLDLGDGGQDGGEQPDASLPLHVLPLYSLLAPEKQAQVFKPPPEGTRLCVVATNVAETSLTIPGIKYVVDCGKVKKRYYDRVTGVSSFRVTWVSQASADQRAGRAGRTEPGHCYRLYSSAVFGDFEQFPPPEITRRPVEDLILQMKALNVEKVINFPFPTPPSVEALLAAEELLIALGALQPPQKAERVKQLQENRLSCPITALGRTMATFPVAPRYAKMLALSRQHGCLPYAITIVASMTVRELFEELDRPAASDEELTRLKSKRARVAQMKRTWAGQGASLKLGDLMVLLGAVGACEYASCTPQFCEANGLRYKAMMEIRRLRGQLTTAVNAVCPEAELFVDPKMQPPTESQVTYLRQIVTAGLGDHLARRVQSEEMLEDKWRNAYKTPLLDDPVFIHPSSVLFKELPEFVVYQEIVETTKMYMKGVSSVEVQWIPALLPSYCQFDKPLEEPAPTYCPERGRVLCHRASVFYRVGWPLPAIEVDFPEGIDRYKHFARFLLEGQVFRKLASYRSCLLSSPGTMLKTWARLQPRTESLLRALVAEKADCHEALLAAWKKNPKYLLAEYCEWLPQAMHPDIEKAWPPTTVH [DHX37] | 0.635 | 50.3 |  | 0.32 | 0.922 | -1
